In paper PMC6389893:

Assays:
Test in all cases: pull-down; GST fusion proteins (2 µg) on agarose beads, nuclease-treated, with in vitro translated [35S]-TRIM33; NETN buffer (20 mM Tris HCl pH 7.5, 100 mM NaCl, 1 mM EDTA, 0.5% NP-40, 1 mM DTT) with 200 µg/ml ethidium bromide, 1 h at 4 °C; phosphoimaging, bound as percent of input
[1] = biological target: GST-IN C-terminal domain (HIV-1)
[2] = biological target: GST-IN catalytic core domain (HIV-1)
[3] = biological target: GST-IN full length (HIV-1)
[4] = biological target: GST-IN N-terminal domain (HIV-1)

B1: in vitro translated [35S]-TRIM33 (natural protein)
chain: MAENKGGGEAESGGGGSGSAPVTAGAAGPAAQEAEPPLTAVLVEEEEEEGGRAGAEGGAAGPDDGGVAAASSGSAQAASSPAASVGTGVAGGAVSTPAPAPASAPAPGPSAGPPPGPPASLLDTCAVCQQSLQSRREAEPKLLPCLHSFCLRCLPEPERQLSVPIPGGSNGDIQQVGVIRCPVCRQECRQIDLVDNYFVKDTSEAPSSSDEKSEQVCTSCEDNASAVGFCVECGEWLCKTCIEAHQRVKFTKDHLIRKKEDVSESVGASGQRPVFCPVHKQEQLKLFCETCDRLTCRDCQLLEHKEHRYQFLEEAFQNQKGAIENLLAKLLEKKNYVHFAATQVQNRIKEVNETNKRVEQEIKVAIFTLINEINKKGKSLLQQLENVTKERQMKLLQQQNDITGLSRQVKHVMNFTNWAIASGSSTALLYSKRLITFQLRHILKARCDPVPAANGAIRFHCDPTFWAKNVVNLGNLVIESKPAPGYTPNVVVGQVPPGTNHISKTPGQINLAQLRLQHMQQQVYAQKHQQLQQMRMQQPPAPVPTTTTTTQQHPRQAAPQMLQQQPPRLISVQTMQRGNMNCGAFQAHQMRLAQNAARIPGIPRHSGPQYSMMQPHLQRQHSNPGHAGPFPVVSVHNTTINPTSPTTATMANANRGPTSPSVTAIELIPSVTNPENLPSLPDIPPIQLEDAGSSSLDNLLSRYISGSHLPPQPTSTMNPSPGPSALSPGSSGLSNSHTPVRPPSTSSTGSRGSCGSSGRTAEKTSLSFKSDQVKVKQEPGTEDEICSFSGGVKQEKTEDGRRSACMLSSPESSLTPPLSTNLHLESELDALASLENHVKIEPADMNESCKQSGLSSLVNGKSPIRSLMHRSARIGGDGNNKDDDPNEDWCAVCQNGGDLLCCEKCPKVFHLTCHVPTLLSFPSGDWICTFCRDIGKPEVEYDCDNLQHSKKGKTAQGLSPVDQRKCERLLLYLYCHELSIEFQEPVPASIPNYYKIIKKPMDLSTVKKKLQKKHSQHYQIPDDFVADVRLIFKNCERFNEMMKVVQVYADTQEINLKADSEVAQAGKAVALYFEDKLTEIYSDRTFAPLPEFEQEEDDGEVTEDSDEDFIQPRRKRLKSDERPVHIK
modifications: [35S]-labeled
percent of radiolabeled input bound [1]: > 8.5% | percent of radiolabeled input bound [2]: < 3% | percent of radiolabeled input bound [3]: > 8.5% | percent of radiolabeled input bound [4]: < 3%
